Assays:
[1] = biological target: Recombinant unmodified nucleosomes; assay: single-molecule TIRF time-lapse imaging, summed binding events
[2] = biological target: Mono-nucleosomes from mouse embryonic stem cells (ESCs) (mouse) (UniProt P68433); assay: single-molecule TIRF time-lapse imaging, images every 15 minutes

Substance: Acetyl-Histone H3 (Lys9) (C5B11) Rabbit mAb (Alexa Fluor 647 Conjugate) #4484 (antibody)
- percent of nucleosomes scored (bound by antibody) [1]: 0.1%

Substance: Tri-Methyl-Histone H3 (Lys4) (C42D8) Rabbit mAb (Alexa Fluor 555 Conjugate) #11960 (antibody)
- time to equilibrium of binding and dissociation [2]: 75 min

Substance: Tri-Methyl-Histone H3 (Lys27) (C36B11) Rabbit mAb (Alexa Fluor 647 Conjugate) #12158 (antibody)
- time to equilibrium of binding and dissociation [2]: 45 min

Source: patent publication US20190284603A1
